The values below come from article doi:10.1101/041756.

Where two headings read alike, the source gives them in different places.

In assay [1] the target is microtubules (human (endogenous in HeLa)) (UniProt P68363).
The target is the same in assay [2]. The source holds these as a separate data set.

Chain of UniProt P68363 (P68363 whole entry): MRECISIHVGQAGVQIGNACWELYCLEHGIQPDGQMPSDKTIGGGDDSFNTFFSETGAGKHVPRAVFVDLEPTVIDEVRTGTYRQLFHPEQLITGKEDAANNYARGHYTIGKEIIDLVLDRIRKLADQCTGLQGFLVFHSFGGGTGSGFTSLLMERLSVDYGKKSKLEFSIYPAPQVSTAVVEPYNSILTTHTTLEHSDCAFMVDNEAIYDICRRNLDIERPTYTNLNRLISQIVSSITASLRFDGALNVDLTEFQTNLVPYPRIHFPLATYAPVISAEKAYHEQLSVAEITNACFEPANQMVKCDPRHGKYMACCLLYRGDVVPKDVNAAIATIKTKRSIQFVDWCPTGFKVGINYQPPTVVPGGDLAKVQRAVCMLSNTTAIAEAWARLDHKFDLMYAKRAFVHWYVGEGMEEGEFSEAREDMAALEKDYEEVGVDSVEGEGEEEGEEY

For AT8mut-CST (S199A/S202A/T205A), in assay [1], the FRAP in living reporter cells: mobile fraction was 57% and the FRAP in living reporter cells: τ2 was 46.8.

Regarding “Conformational-Sensitive Tau sensor (ECFP-Tau-EYFP, full length Tau-D, 0N4R) (from UniProt P10636-6 1-383)”, in assay [2], the FRAP in living reporter cells: mobile fraction was 73% and the FRAP in living reporter cells: τ1 of the MTs-bound phase came out at 30 s.

In assay [1], P301L-CST yielded an FRAP in living reporter cells: diffusive fraction of 38% and an FRAP in living reporter cells: mobile fraction of 84%.

Substance P301S-CST displayed an FRAP in living reporter cells: mobile fraction in assay [1] of 85%.

Consider S422E-CST, for which the FRAP in living reporter cells: mobile fraction in assay [1] was 86%.
